Here are results for nine molecules from patent publication US20240368267A1 (KODIAK SCIENCES, published 2024).

By Kd is commonly meant the constant that tells how readily two partners part at equilibrium. As a reminder, the koff is the first-order rate constant of dissociation. As a reminder, the kon is the second-order rate constant of association.

In one assay the target is VEGF (UniProt P15692-4 27-191, limits assumed). Nature of the assay: cell-based or functional assay.
Assay [1] has as its target T1, recombinant human IL-6 (human, UniProt P05231 30-212).
T1 construct: Analyte in the Biacore assays; also called interleukin-6
The assay is described as follows: SPR Biacore, cell supernatant dual inhibitor captured on Protein A, IL-6 analyte, 25 C.
T1 sequence (P05231 30-212 limits assumed): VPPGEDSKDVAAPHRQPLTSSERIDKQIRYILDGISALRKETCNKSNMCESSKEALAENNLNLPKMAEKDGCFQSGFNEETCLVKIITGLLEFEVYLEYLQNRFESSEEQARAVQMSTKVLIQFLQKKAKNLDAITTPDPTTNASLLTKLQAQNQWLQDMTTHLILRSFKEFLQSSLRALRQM

The target of assay [2] is T1, recombinant human IL-6. The assay is described as follows: SPR Biacore, purified dual inhibitor captured on Protein A, IL-6 analyte, 37 C.
Assay [3] deals with T2, recombinant human IL-6 (human, UniProt P05231 30-212).
T2 construct: bought protein; also called interleukin-6
Nature of the assay: Biacore at 37 C, antibody captured on Protein A, IL-6 as analyte. (In SPR one partner is held on a chip, and binding of the other changes the refractive index at the surface.)
T2 sequence (P05231 30-212 limits assumed): as above

For assay [4], the target named is T2, recombinant human IL-6. Nature of the assay: Biacore, antibody captured on Protein A, IL-6 as analyte. The method, then:
Antibodies were captured on a Protein A chip (GE) by injecting 1:20 cell supernatant dilutions at 10 μL/min for 60 seconds. […] The sensor chip was regenerated by a 60 seconds injection of 10 mM Glycine pH 1.7 at the flow rate of […]. […] For this setup, 1 μg/mL of purified antibody was injected over a Protein A chip at 10 μL/min for 25 seconds. […] The sensor chip was regenerated by a 60 seconds injection of 10 mM Glycine pH 1.7 at flow rate of 50 μL/min. Data analysis for supernatant and purified samples were performed using BIAevaluation software (GE). All sensorgrams were double reference subtracted and fit using a 1:1 Langmuir binding model.

Changes are numbered by the printed parent chain. Names and notes keep the numbering of the source.

Sequence of VEGF (P15692 other isoform, or with tags, fused parts or gaps limits assumed): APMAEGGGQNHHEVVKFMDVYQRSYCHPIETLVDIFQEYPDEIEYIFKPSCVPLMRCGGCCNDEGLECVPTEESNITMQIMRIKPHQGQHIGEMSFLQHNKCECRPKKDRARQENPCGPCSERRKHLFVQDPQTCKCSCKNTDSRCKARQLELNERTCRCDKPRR

B1: VEGFR-AntiIL6 (heavy chain of sequences 1A-2A-3H, light chain of sequence 4A) (bispecific antibody)
fusion: SDTGRPFVEMYSEIPEIIHMTEGRELVIPCRVTSPNITVTLKKFPLDTLIPDGKRIIWDSRKGFIISNATYKEIGLLTCEATVNGHLYKTNYLTHRQTNTIIDVVLSPSHGIELSVGEKLVLNCTARTELNVGIDFNWEYPSSKHQHKKLVNRDLKTQSGSEMKKFLSTLTIDGVTRSDQGLYTCAASSGLMTKKNSTFVRVHEKGGGGSGGGGSEVQLVESGGGLVQPGGSLRLSCAASGFTFSPFAISWVRQAPGKGLEWVAKISPGGSWTYYSDTVTDRFTFSLDTSKSTAYLQMNSLRAEDTAVYYCARQLWGYYALDVWGQGTLVTVSSASTKGPSVFPLAPSSKSTSGGTAALGCLVKDYFPEPVTVSWNSGALTSGVHTFPAVLQSSGLYSLSSVVTVPSSSLGTQTYICNVNHKPSNTKVDKKVEPKSCDKTHTCPPCPAPEAAGAPSVFLFPPKPKDTLMISRTPEVTCVVVDVSHEDPEVKFNWYVDGVEVHNAKTKPREEQYNSTYRVVSVLTVLHQDWLNGKEYKCKVSNKALPAPIEKTISKAKGQPREPQVYTLPPSREEMTKNQVSLTCLVKGFYPSDIAVEWESNGQPENNYKTTPPVLDSDGSFFLYSKLTVDKSRWQQGNVFSCSVMHEALHNHYTQKSLSCSPGK
light: DIQLTQSPSSLSASVGDRVTITCSASISVSYLYWYQQKPGKAPKLLIYDDSSLASGVPSRFSGSGSGTDFTLTISSLQPEDFATYYCQQWSGYPYTFGQGTKVEIKRTVAAPSVFIFPPSDEQLKSGTASVVCLLNNFYPREAKVQWKVDNALQSGNSQESVTEQDSKDSTYSLSSTLTLSKADYEKHKVYACEVTHQGLSSPVTKSFNRGEC
For B1, the “cell-based VEGF stimulated VEGFR reporter assay (KDR/VEGF HEK293 cells, luminescence), IC50” value with VEGF is 180 pM.

B2: dual inhibitor variant L of Table 2.1 (AntiIL-6-VEGF Trap) (other)
heavy: EVQLVESGGGLVQPGGSLRLSCAASGFTFSPFAWSWVRQAPGKGLEWVAKISPGGSWTYYSDTVTDRFTFSLDTSKSTAYLQMNSLRAEDTAVYYCARQLWGYYALDVWGQGTLVTVSSASTKGPSVFPLAPSSKSTSGGTAALGCLVKDYFPEPVTVSWNSGALTSGVHTFPAVLQSSGLYSLSSVVTVPSSSLGTQTYICNVNHKPSNTKVDKKVEPKSCGGGGSGGGGSSDTGRPFVEMYSEIPEIIHMTEGRELVIPCRVTSPNITVTLKKFPLDTLIPDGKRIIWDSRKGFIISNATYKEIGLLTCEATVNGHLYKTNYLTHRQTNTIIDVVLSPSHGIELSVGEKLVLNCTARTELNVGIDFNWEYPSSKHQHKKLVNRDLKTQSGSEMKKFLSTLTIDGVTRSDQGLYTCAASSGLMTKKNSTFVRVHEKDKTHTCPPCPAPEAAGAPSVFLFPPKPKDTLMISRTPEVTCVVVDVSHEDPEVKFNWYVDGVEVHNAKTKPREEQYNSTYRVVSVLTVLHQDWLNGKEYKCKVSNKALPAPIEKTISKAKGQPREPQVYTLPPSREEMTKNQVSLTCLVKGFYPSDIAVEWESNGQPENNYKTTPPVLDSDGSFFLYSKLTVDKSRWQQGNVFSCSVMHEALHNHYTQKSLSCSPGK
light: B1 light with S52N
notes: Antibody-VEGF trap fusion, trap between Fab and Fc of the heavy chain (VH variant II); also called molecule L
Regarding B2, in the assay with recombinant human IL-6 [1], the dissociation constant Kd was 239 pM, the koff amounted to 0.000169 s⁻¹ and the kon was determined as 705000 M⁻¹ s⁻¹. Moreover, in the assay with recombinant human IL-6 [2], the Kd was found to be 436 pM, the koff turned out to be 0.00065 s⁻¹ and the kon was 1.49e+06 M⁻¹ s⁻¹.

B3: anti-IL-6 antibody, heavy chain S35H, G66D, light chain M32L/M50D/N52S/M88Q (antibody, human IgG1, V domains shown)
VH: EVQLVESGGGLVQPGGSLRLSCAASGFTFSPFAMHWVRQAPGKGLEWVAKISPGGSWTYYSDTVTDRFTFSLDTSKSTAYLQMNSLRAEDTAVYYCARQLWGYYALDIWGQGTLVTVSS
VL: DIQLTQSPSSLSASVGDRVTITCSASISVSYLYWYQQKPGKAPKLLIYDDSSLASGVPSRFSGSGSGTDFTLTISSLQPEDFATYYCQQWSGYPYTFGQGTKVEIK
notes: engineered human IgG1 as m23; also called S35H G66D double mutant with mutagenized light chain
Take B3: in the assay with recombinant human IL-6 [3], the “fold increase in affinity relative to the wild-type heavy chain” value was approximately 1.3 fold.

B4: anti-IL-6 antibody, heavy chain variant II (M34W/G66D/I108V), light chain variant III (M32L/M50D/N52S/M88Q) (antibody, human IgG1, V domains shown)
VH: B3 VH with M34W, H35S, I108V
VL: B3 VL
notes: engineered human IgG1; also called II/III
As to B4, the binding result with recombinant human IL-6 [4] is given as “binds”.

B5: anti-IL-6 antibody, heavy chain S35H, G66D, light chain wild-type (antibody, human IgG1, V domains shown)
VH: B3 VH
VL: B3 VL with L32M, D50M, S52N, Q88M
notes: engineered human IgG1 as m23; also called S35H G66D double mutant
Consider B5, for which the “fold increase in affinity relative to the wild-type heavy chain” value with recombinant human IL-6 [3] is approximately 2 fold.

B6: anti-IL-6 antibody, heavy chain variant I (M34I/G66D/I108V), light chain variant IV (M32L/M50A/N52S/M88Q) (antibody, human IgG1, V domains shown)
VH: B3 VH with M34I, H35S, I108V
VL: B3 VL with D50A
notes: engineered human IgG1; also called I/IV
With B6, the binding result with recombinant human IL-6 [4] is “binds”.

B7: anti-IL-6 antibody, heavy chain variant II (M34W/G66D/I108V), light chain variant V (M32L/M50D/M88Q) (antibody, human IgG1, V domains shown)
VH: B3 VH with M34W, H35S, I108V
VL: B3 VL with S52N
notes: engineered human IgG1; also called II/V
Consider B7, for which the binding result in the assay with recombinant human IL-6 [4] is “binds”.

B8: anti-IL-6 antibody, heavy chain variant II (M34W/G66D/I108V), light chain variant IV (M32L/M50A/N52S/M88Q) (antibody, human IgG1, V domains shown)
VH: B3 VH with M34W, H35S, I108V
VL: B3 VL with D50A
notes: engineered human IgG1; also called II/IV
In the case of B8, the binding result with recombinant human IL-6 [4] is on record as “binds”.

B9: anti-IL-6 antibody, heavy chain variant I (M34I/G66D/I108V), light chain variant V (M32L/M50D/M88Q) (antibody, human IgG1, V domains shown)
VH: B3 VH with M34I, H35S, I108V
VL: B3 VL with S52N
notes: engineered human IgG1; also called I/V
Take B9: the binding result with recombinant human IL-6 [4] is given as “binds”.
